Patent publication US20220363757A1 (SYMPHOGEN A S, published 2022)
Positions count from the first letter of the chain named.

T1: human LAG-3 domain 1-2 Fc fusion, point mutation #47 T100A (human, UniProt P18627 23-266)
T1 construct: not shown: human IgG1 Fc, AA P101-K330
T1 sequence: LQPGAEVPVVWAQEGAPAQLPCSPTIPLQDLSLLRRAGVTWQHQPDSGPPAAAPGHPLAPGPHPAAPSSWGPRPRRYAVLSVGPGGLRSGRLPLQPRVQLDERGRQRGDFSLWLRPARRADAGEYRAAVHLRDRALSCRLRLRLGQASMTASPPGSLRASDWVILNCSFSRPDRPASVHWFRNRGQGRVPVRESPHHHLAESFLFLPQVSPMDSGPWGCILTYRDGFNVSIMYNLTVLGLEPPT

T2: human LAG-3 domain 1-2 Fc fusion, point mutation #52 G108A (human, UniProt P18627 23-266)
T2 construct: not shown: human IgG1 Fc, AA P101-K330
T2 sequence: T1 sequence with A78T, G86A

T3: human LAG-3 domain 1-2 Fc fusion, point mutation #64 E124A (human, UniProt P18627 23-266)
T3 construct: not shown: human IgG1 Fc, AA P101-K330
T3 sequence: T1 sequence with A78T, E102A

T4: human LAG-3 domain 1-2 Fc fusion, point mutation #67 R127A (human, UniProt P18627 23-266)
T4 construct: not shown: human IgG1 Fc, AA P101-K330
T4 sequence: T1 sequence with A78T, R105A

T5: human LAG-3 domain 1-2 Fc fusion, point mutation #1 A40S (human, UniProt P18627 23-266)
T5 construct: not shown: human IgG1 Fc, AA P101-K330
T5 sequence: T1 sequence with A18S, A78T

T6: human LAG-3 domain 1-2 Fc fusion, point mutation #13 R58A (human, UniProt P18627 23-266)
T6 construct: not shown: human IgG1 Fc, AA P101-K330
T6 sequence: T1 sequence with R36A, A78T

T7: human LAG-3 domain 1-2 Fc fusion, point mutation #15 Q64A (human, UniProt P18627 23-266)
T7 construct: not shown: human IgG1 Fc, AA P101-K330
T7 sequence: T1 sequence with Q42A, A78T

T8: human LAG-3 domain 1-2 Fc fusion, point mutation #31 P84A (human, UniProt P18627 23-266)
T8 construct: not shown: human IgG1 Fc, AA P101-K330
T8 sequence: T1 sequence with P62A, A78T

T9: human LAG-3 domain 1-2 Fc fusion, point mutation #39 W92A (human, UniProt P18627 23-266)
T9 construct: not shown: human IgG1 Fc, AA P101-K330
T9 sequence: T1 sequence with W70A, A78T

B1: Fab fragment of antibody 15572 (Fab, V domains shown, not shown: a dimerising Fc or GST)
VH: QLQLQESGPGLVKPSETLSLTCTVSGDSISSSSYYWGWIRQPPGKGLEWIGSIFYSGNTYYNPSLKSRVTISVDTSKNQFSLKLSSVTAADTAVYYCAREDDFLTDYYGAFDIWGQGTMVTVSS
VL: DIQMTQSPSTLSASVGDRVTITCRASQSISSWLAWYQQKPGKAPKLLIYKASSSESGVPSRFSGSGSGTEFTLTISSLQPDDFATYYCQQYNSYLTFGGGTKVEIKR
notes: monomeric Fab made by GingisKHAN digestion of the IgG1
B2: Fab fragment of antibody 15532 (Fab, V domains shown, not shown: a dimerising Fc or GST)
VH: QVQLQQWGAGLLRPSETLSLTCAVYGESFSGYYWNWIRQPPGKGLEWIGEINHSGSTNYNPSLKSRVTISVDTSKTQFSLKLSSVTAADTAVYYCARGWDLLDWNDYWNEYWGQGTLVTVSS
VL: EIVLTQSPATLSLSPGERATLSCRASQSVSSYLAWYQQKPGQAPRLLIYDASNRATGIPARFSGSGSGTDFTLTISSLEPEDFAVYYCQQRSNWPLTFGGGTKVEIKR
notes: as for B1
B3: Fab fragment of antibody 15431 (Fab, V domains shown, not shown: a dimerising Fc or GST)
VH: QVQLQQSGPGLVKPSQTLSLTCAISGDSVSSNSAAWNWIRQSPSRGLEWLGRTYYRSKWYNDYAVSVKSRITINPDTSKNQFSLQLNSVTPEDTAVYYCARDDDWNDFDYWGQGTLVTVSS
VL: B2 VL
notes: as for B1
B4: Fab fragment of antibody 15011 (Fab, V domains shown, not shown: a dimerising Fc or GST)
VH: EVQLLESGGGLVQPGGSLRLSCAASGFDFRSYAMMWVRQAPGKGLEWVGGINGEVGGSNTYYAPAVKGRATISRDNSKNTLYLQMNSLRAEDTAVYYCVKGAGACGICNDDIDAWGQGTLVTVSS
VL: SYELTQDPAVSVALGQTVRITCSGAGSYAGSYYYGWHQQKPGQAPVTVIYDNDKRPSNIPDRFSGSSSGNTASLTITGAQAEDEADYYCGSTNDNDDGGLFGSGTKVTVLG
notes: as for B1

Tests used:
Assay in all cases: SPR, Fab over captured mutant LAG-3-Fc;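 note: fc fusion variants captured on anti-human IgG Fc sensor, Fab injected with association then dissociation phases, KD obtained from Langmuir one-to-one fit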
[1] = biological target: T1, human LAG-3 domain 1-2 Fc fusion, point …
[2] = biological target: T2, human LAG-3 domain 1-2 Fc fusion, point …
[3] = biological target: T3, human LAG-3 domain 1-2 Fc fusion, point …
[4] = biological target: T4, human LAG-3 domain 1-2 Fc fusion, point …
[5] = biological target: T5, human LAG-3 domain 1-2 Fc fusion, point …
[6] = biological target: T6, human LAG-3 domain 1-2 Fc fusion, point …
[7] = biological target: T7, human LAG-3 domain 1-2 Fc fusion, point …
[8] = biological target: T8, human LAG-3 domain 1-2 Fc fusion, point …
[9] = biological target: T9, human LAG-3 domain 1-2 Fc fusion, point …

| Binder | binding result [1] | KD mutant/KD wild type [2] [fold] | binding result [3] | KD mutant/KD wild type [4] [fold] | binding result [5] | KD mutant/KD wild type [6] [fold] | binding result [7] | KD mutant/KD wild type [8] [fold] | KD mutant/KD wild type [9] [fold] | KD mutant/KD wild type [1] [fold] | KD mutant/KD wild type [3] [fold] | KD mutant/KD wild type [5] [fold] | KD mutant/KD wild type [7] [fold] | binding result [9] |
| --- | --- | --- | --- | --- | --- | --- | --- | --- | --- | --- | --- | --- | --- | --- |
| B1 | no binding (tested: 300 nM) | 0.4 | no binding (tested: 300 nM) | 0.5 | no binding (tested: 300 nM) | 0.8 | no binding (tested: 300 nM) | 0.9 | 1 | – | – | – | – | – |
| B2 | – | 1 | – | 0.6 | – | 0.8 | – | 0.5 | – | 3.9 | 1.8 | 4.4 | 2.9 | no binding (tested: 300 nM) |
| B3 | no binding (tested: 300 nM) | 0.3 | no binding (tested: 300 nM) | 0.9 | no binding (tested: 300 nM) | 1.2 | no binding (tested: 300 nM) | 1.1 | 3.6 | – | – | – | – | – |
| B4 | – | 0.5 | – | 0.9 | – | 1.7 | – | 1 | 1.1 | 0.6 | 0.8 | 0.6 | 0.6 | – |
